Reference: patent US20230241243A1, “CARRIER PARTICLE-DRUG CONJUGATES, SELF-IMMOLATIVE LINKERS, AND USES THEREOF” (priority 2020, published 2023)

Assay: Drug-release assay of nanoparticle-conjugated linker-payloads under cleavage conditions (Cat-B, redox-responsive or pH-sensitive cleaving study), RP-HPLC
Type: in vitro ADME
Details: linker-payload conjugated to DBCO-functionalized silica nanoparticle, 37° C., 24 hours
Description: To assess the drug releasing profile of exemplary linker-drug conjugates, the linker-drug conjugates were each conjugated to a DBCO-functionalized ultrasmall silica nanoparticle via a click chemistry reaction between the azide groups on the linker-drug conjugate precursors and the dibenzocyclooctyne (DBCO) groups of the nanoparticles. The resulting drug-nanoparticle-conjugates were then incubated under the desired releasing conditions for release kinetics tests.
The amount of released drugs vs non-released drugs was measured using reverse phase HPLC by analyzing the area under curve (AUC) (FIG. 10A and FIG. 10B).
General Method: A Waters Xbridge Peptide BEH C18 column with 4.6 mm×50 mm dimensions, a particle size of 5 μm, and a pore size of 300 A was used (part number 186003622). Acetonitrile (VWR HiPerSolv Chromanorm, UHPLC Grade) was used as received without further preparation, […] trifluoroacetic acid in deionized water was prepared by adding 1 mL of trifluoroacetic acid (HPLC grade, Millipore-Sigma) into 999 mL 18.2 MΩ·cm deionized water that was generated using an IQ7000 Millipore deionized water system and passed through a 0.2 μm filter before use. The seal wash used for the system was composed of 90% 18.2 MΩ·cm deionized water and 10% methanol (HPLC grade, VWR). The injection needle was washed using a mixture of 25 vol % 18.2 MΩ·cm deionized water, 25 vol % acetonitrile, 25 vol % methanol, and 25 vol % 2-propanol. Samples were prepared in a concentration range of 0.25 to 2 μM and the injection volume ranges from 60 μL to 10 μL, respectively. Higher sample concentration can be used if detector signal is low. Vials used for all injections are fresh Waters Total Recovery vials with screw caps that have pre-slit PTFE septa (part number 186000385C).
Method for Protease-cleavable and Redox-responsive Linkers: Before any sample injections were started, the PDA lamp was turned on and allowed to warm up for at least 30 minutes. The system and column were equilibrated with 95% 0.01% TFA in deionized water, 5% acetonitrile for at least 10 minutes at a flow rate of 1.0 mL/min after the PDA lamp had warmed up. Two blank injections, with injection volumes of 10 μL containing only 18.2 MΩ·cm deionized water, were performed before the injection of any samples for analysis. The gradient used to elute protease-cleavable and redox-sensitive linkers conjugated to hybrid silica nanoparticles, and their components began at 95% 0.01% TFA in deionized water and 5% acetonitrile and linearly changed to 15% 0.01% TFA in deionized water, 85% acetonitrile over 8 minutes. Acetonitrile composition was increased to 95% over an additional minute and held at 95% for an additional 2 minutes to ensure that any strongly retained compounds are eluted. The composition of the solvent was then changed back to the starting composition of the gradient over an additional minute and allowed to equilibrate for 3 minutes before another injection began. Between sample injections a blank injection was run to ensure that no carryover occurred.
Method for pH-sensitive Linkers: Before any sample injections were started, the PDA lamp was turned on and allowed to warm up for at least 30 minutes. A gradient of pure deionized water and acetonitrile was used, all other consumables including column and vials were the same as for the method to purify Cat-B sensitive and redox-responsive linkers elaborated on above. Briefly the gradient composition began at 95% deionized water and 5% acetonitrile at a flow rate of 1.0 mL/min (not changed throughout the method). The composition was changed from this starting composition to 15% deionized water and 85% acetonitrile over a 12-minute period, during which the retained drug-linkers, released drug, free drug linker, and any other impurities eluted. At the 12-minute mark the composition was rapidly changed to 5% deionized water and 95% acetonitrile over the course of one minute. […]

Row | SMILES | % of Payload Release in 24 Hours Under Cleavage Conditions
1 | CC[C@@]1(O)C(=O)OCc2c1cc1n(c2=O)Cc2c-1nc1cc(F)c(C)c3c1c2[C@@H](NCc1ccc(NC(=O)[C@H](CCCNC(N)=O)NC(=O)[C@@H](NC(=O)CCOCCOCCOCCOCCOCCOCCOCCOCCOCCN=[N+]=[N-])C(C)C)cn1)CC3 [Example 46, 1-azido-N-((S)-1-(((S)-1-((6-((((1S,9S)-9-ethyl-5-fluoro-9-hydroxy-4-methyl-10,13-dioxo-2,3,9,10,13,15-hexahydro-1H,12H-benzo[de]pyrano[3′,4′:6,7]indolizino[1,2-b]quinolin-1-yl)amino)methyl)pyridin-3-yl)amino)-1-oxo-5-ureidopentan-2-yl)amino)-3-methyl-1-oxobutan-2-yl)-3,6,9,12,15,18,21,24,27-nonaoxatriacontan-30-amide] | + (‘+’ indicates 5-25% release)
2 | CCc1c2c(nc3ccc(OCc4ccc(NC(=O)[C@H](CCCNC(N)=O)NC(=O)[C@@H](NC(=O)CCOCCOCCOCCOCCOCCN=[N+]=[N-])C(C)C)cc4)cc13)-c1cc3c(c(=O)n1C2)COC(=O)[C@]3(O)CC [Example 47, 1-azido-N-((S)-1-(((S)-1-((4-((((S)-4,11-diethyl-4-hydroxy-3,14-dioxo-3,4,12,14-tetrahydro-1H-pyrano[3′,4′:6,7]indolizino[1,2-b]quinolin-9-yl)oxy)methyl)phenyl)amino)-1-oxo-5-ureidopentan-2-yl)amino)-3-methyl-1-oxobutan-2-yl)-3,6,9,12,15-pentaoxaoctadecan-18-amide] | + (‘+’ indicates 5-25% release)
3 | CCc1c2c(nc3ccc(OCc4ccc(NC(=O)[C@H](CCCNC(N)=O)NC(=O)[C@@H](NC(=O)CCOCCOCCOCCOCCOCCOCCOCCOCCOCCN=[N+]=[N-])C(C)C)cc4)cc13)-c1cc3c(c(=O)n1C2)COC(=O)[C@]3(O)CC [Example 48, 1-azido-N-((S)-1-(((S)-1-((4-((((S)-4,11-diethyl-4-hydroxy-3,14-dioxo-3,4,12,14-tetrahydro-1H-pyrano[3′,4′:6,7]indolizino[1,2-b]quinolin-9-yl)oxy)methyl)phenyl)amino)-1-oxo-5-ureidopentan-2-yl)amino)-3-methyl-1-oxobutan-2-yl)-3,6,9,12,15,18,21,24,27-nonaoxatriacontan-30-amide] | + (‘+’ indicates 5-25% release)
4 | CCc1c2c(nc3ccc(OCc4ccc(NC(=O)[C@H](CCCNC(N)=O)NC(=O)[C@@H](NC(=O)CCOCCOCCOCCOCCOCCOCCOCCOCCOCCOCCOCCN=[N+]=[N-])C(C)C)cc4)cc13)-c1cc3c(c(=O)n1C2)COC(=O)[C@]3(O)CC [Example 49, 1-azido-N-((S)-1-(((S)-1-((4-((((S)-4,11-diethyl-4-hydroxy-3,14-dioxo-3,4,12,14-tetrahydro-1H-pyrano[3′,4′:6,7]indolizino[1,2-b]quinolin-9-yl)oxy)methyl)phenyl)amino)-1-oxo-5-ureidopentan-2-yl)amino)-3-methyl-1-oxobutan-2-yl)-3,6,9,12,15,18,21,24,27,30,33-undecaoxahexatriacontan-36-amide] | + (‘+’ indicates 5-25% release)
5 | CC[C@@]1(O)C(=O)OCc2c1cc1n(c2=O)Cc2c-1nc1cc(F)c(C)c3c1c2[C@@H](NC(=O)[C@@H](CCCNC(N)=O)NC(=O)[C@@H](NC(=O)CCOCCOCCOCCOCCOCCOCCOCCOCCOCCOCCOCCN=[N+]=[N-])C(C)C)CC3 [Example 50, 1-azido-N-((S)-1-(((R)-1-(((1S,9S)-9-ethyl-5-fluoro-9-hydroxy-4-methyl-10,13-dioxo-2,3,9,10,13,15-hexahydro-1H,12H-benzo[de]pyrano[3′,4′:6,7]indolizino[1,2-b]quinolin-1-yl)amino)-1-oxo-5-ureidopentan-2-yl)amino)-3-methyl-1-oxobutan-2-yl)-3,6,9,12,15,18,21,24,27,30,33-undecaoxahexatriacontan-36-amide] | + (‘+’ indicates 5-25% release)
6 | CCc1c2c(nc3ccc(OCCCSSC(C)(C)CNC(=O)CCOCCOCCOCCOCCOCCN=[N+]=[N-])cc13)-c1cc3c(c(=O)n1C2)COC(=O)[C@]3(O)CC [Example 54, (S)-1-azido-N-(2-((3-((4,11-diethyl-4-hydroxy-3,14-dioxo-3,4,12,14-tetrahydro-1H-pyrano[3′,4′:6,7]indolizino[1,2-b]quinolin-9-yl)oxy)propyl)disulfanyl)-2-methylpropyl)-3,6,9,12,15-pentaoxaoctadecan-18-amide] | + (‘+’ indicates 5-25% release)
7 | CCc1c2c(nc3ccc(OCCCSSC(C)(C)CNC(=O)CCOCCOCCOCCOCCOCCOCCOCCOCCOCCN=[N+]=[N-])cc13)-c1cc3c(c(=O)n1C2)COC(=O)[C@]3(O)CC [Example 55, (S)-1-Azido-N-(2-((3-((4,11-diethyl-4-hydroxy-3,14-dioxo-3,4,12,14-tetrahydro-1H-pyrano[3′,4′:6,7]indolizino[1,2-b]quinolin-9-yl)oxy)propyl)disulfanyl)-2-methylpropyl)-3,6,9,12,15,18,21,24,27-nonaoxatriacontan-30-amide] | + (‘+’ indicates 5-25% release)
8 | CCc1c2c(nc3ccc(OCCCSSC(C)(C)CNC(=O)CCOCCOCCOCCOCCOCCOCCOCCOCCOCCOCCOCCN=[N+]=[N-])cc13)-c1cc3c(c(=O)n1C2)COC(=O)[C@]3(O)CC [Example 56, (S)-1-azido-N-(2-((3-((4,11-diethyl-4-hydroxy-3,14-dioxo-3,4,12,14-tetrahydro-1H-pyrano[3′,4′:6,7]indolizino[1,2-b]quinolin-9-yl)oxy)propyl)disulfanyl)-2-methylpropyl)-3,6,9,12,15,18,21,24,27,30,33-undecaoxahexatriacontan-36-amide] | + (‘+’ indicates 5-25% release)
9 | CCc1c2c(nc3ccc(OCCCNC(=O)OCc4ccc(SSC(C)(C)CNC(=O)CCOCCOCCOCCOCCOCCOCCOCCOCCOCCN=[N+]=[N-])cc4)cc13)-c1cc3c(c(=O)n1C2)COC(=O)[C@]3(O)CC [Example 59, 4-((1-azido-33-methyl-30-oxo-3,6,9,12,15,18,21,24,27-nonaoxa-31-azatetratriacontan-33-yl)disulfanyl)benzyl (S)-(3-((4,11-diethyl-4-hydroxy-3,14-dioxo-3,4,12,14-tetrahydro-1H-pyrano[3′,4′:6,7]indolizino[1,2-b]quinolin-9-yl)oxy)propyl)carbamate] | +++ (‘+++’ indicates 51-75% release)
10 | CC[C@@]1(O)C(=O)OCc2c1cc1n(c2=O)Cc2c-1nc1cc(F)c(C)c3c1c2[C@@H](NC(=O)CSSC(C)(C)CNC(=O)CCOCCOCCOCCOCCOCCOCCOCCOCCOCCOCCOCCOCCN=[N+]=[N-])CC3 [Example 60, 1-azido-N-(2-((2-(((1S,9S)-9-ethyl-5-fluoro-9-hydroxy-4-methyl-10,13-dioxo-2,3,9,10,13,15-hexahydro-1H,12H-benzo[de]pyrano[3′,4′:6,7]indolizino[1,2-b]quinolin-1-yl)amino)-2-oxoethyl)disulfaneyl)-2-methylpropyl)-3,6,9,12,15,18,21,24,27,30,33,36-dodecaoxanonatriacontan-39-amide] | +++ (‘+++’ indicates 51-75% release)
11 | CCc1c2c(nc3ccc(OCCCNC(=O)OCCSSCCNC(=O)CCOCCOCCOCCOCCOCCOCCOCCOCCOCCN=[N+]=[N-])cc13)-c1cc3c(c(=O)n1C2)COC(=O)[C@]3(O)CC [Example 61, 37-Azido-8-oxo-11,14,17,20,23,26,29,32,35-nonaoxa-3,4-dithia-7-azaheptatriacontyl (S)-(3-((4,11-diethyl-4-hydroxy-3,14-dioxo-3,4,12,14-tetrahydro-1H-pyrano[3′,4′:6,7]indolizino[1,2-b]quinolin-9-yl)oxy)propyl)carbamate] | + (‘+’ indicates 5-25% release)
